In patent US20210130473A1, “TGFßR1 INHIBITOR-ASGR ANTIBODY CONJUGATES AND USES THEREOF” (Silverback Therapeutics, Inc., priority 2019, published 2021):
Where two headings read alike, the source gives them in different places.

B1: ASGR1 mAb-B (antibody, from another filing, V domains shown)
VH: EVQLVESGGGLVKPGGSLRLSCAASGFTFSSYSMNWVRQAPGKGLEWVSSISGSSSYIYYADSVKGRFTISRDNAKNSLYLQMNSLRAEDTAVYFCARGGSRGFDPWGQGTLVTVSS
VL: DIQMTQSPSSLSASVGDRVTITCRASQSITSYLNWYQQKPGKAPKLLIYTASSLQSGVPSRFSGSGSGTDFTLTISSLQPEDFATYYCQQSHSFPFTFGPGTKVDIK
B2: ASGR1 mAb-A (antibody, from another filing, V domains shown)
VH: QVQLVQSGTEVKKPGASVKVSCKASGYTFTNYDINWVRQATGQGLEWMGWMHPNSGNTGYAQKFQGRVTLTRNTSISTAYMELSSLRSEDTAVYYCASSSGWYYFDYWGQGTLVTVSS
VL: DIVMTQSPDSLAVSLGERATINCKSSQSILHSSNNNNYLAWFQQKPGQPPKLLLYWASTRESGVPDRFSGSGSGTDFTLTISSLQPEDVAVYYCQQYYNTPVTFGPGTKVGIK

Legend:
[1] = target: T1, rat ASGR1 on CHO-S cells (rat) (UniProt P02706); experiment: Guava flow cytometry on CHO-S cells expressing rat ASGR1
T1 sequence (looked up): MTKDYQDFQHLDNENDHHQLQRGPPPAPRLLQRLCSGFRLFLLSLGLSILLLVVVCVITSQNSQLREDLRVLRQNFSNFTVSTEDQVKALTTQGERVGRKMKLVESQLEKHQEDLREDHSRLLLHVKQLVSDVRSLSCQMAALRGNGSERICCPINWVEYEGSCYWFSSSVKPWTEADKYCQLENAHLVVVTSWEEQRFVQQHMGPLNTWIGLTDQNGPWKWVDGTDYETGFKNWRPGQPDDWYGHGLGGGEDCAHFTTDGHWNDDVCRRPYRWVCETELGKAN

[2] = target: Cynomolgus macaque ASGR1 on CHO-S cells (Cynomolgus macaque); experiment: Guava flow cytometry on CHO-S cells expressing cynomolgus ASGR1
[3] = target: T1, rat ASGR1 on CHO-S cells (rat); experiment: Guava flow cytometry on CHO-S cells expressing rat ASGR1 (repeat of Table 16)
[4] = target: human ASGR1 (asialoglycoprotein receptor 1) on cells (human) (UniProt P07306); experiment: flow cytometry on HepG2 cells, anti-human IgG PE secondary, MFI (Geo Mean)
[5] = target: Cynomolgus macaque ASGR1 on CHO-S cells (Cynomolgus macaque); experiment: Guava flow cytometry on CHO-S cells expressing cynomolgus ASGR1 (repeat of Table 15)
[6] = target: human ASGR1 (asialoglycoprotein receptor 1) on cells (human) (UniProt P07306); experiment: flow cytometry on HepG2 cells, anti-human IgG PE secondary, MFI (Geo Mean); remark: listed apart in the source

Sequence of human ASGR1 (asialoglycoprotein receptor 1) on cells (human) (P07306 whole entry): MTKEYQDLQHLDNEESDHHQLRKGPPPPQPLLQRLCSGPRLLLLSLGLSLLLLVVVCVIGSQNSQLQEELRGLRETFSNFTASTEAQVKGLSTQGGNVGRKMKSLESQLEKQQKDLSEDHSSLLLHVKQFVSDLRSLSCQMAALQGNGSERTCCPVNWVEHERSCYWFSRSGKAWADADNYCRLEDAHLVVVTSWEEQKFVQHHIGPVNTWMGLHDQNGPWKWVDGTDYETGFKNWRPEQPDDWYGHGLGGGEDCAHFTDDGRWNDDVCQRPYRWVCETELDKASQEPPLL

Binder | EC50 [1] | EC50 [2] | EC50 [3] | EC50 (read off the curve) [4] | EC50 [5] | EC50 (read off the curve) [6]
B1 | 0.38 nM | 0.36 nM | 0.38 nM | 0.2 µg/mL | 0.36 nM | 
B2 | 3.22 nM | 1.07 nM | 3.22 nM | 0.5 µg/mL | 1.07 nM | 0.6 µg/mL
